The target in this experiment is hLDLR of non-genetically modified human cells (human fibroblasts, HUVEC) (human), P01130. As to the kind of experiment: FACS on HUVEC.
Sequence of hLDLR of non-genetically modified human cells (human fibroblasts, HUVEC) (human), P01130 (P01130 22-860): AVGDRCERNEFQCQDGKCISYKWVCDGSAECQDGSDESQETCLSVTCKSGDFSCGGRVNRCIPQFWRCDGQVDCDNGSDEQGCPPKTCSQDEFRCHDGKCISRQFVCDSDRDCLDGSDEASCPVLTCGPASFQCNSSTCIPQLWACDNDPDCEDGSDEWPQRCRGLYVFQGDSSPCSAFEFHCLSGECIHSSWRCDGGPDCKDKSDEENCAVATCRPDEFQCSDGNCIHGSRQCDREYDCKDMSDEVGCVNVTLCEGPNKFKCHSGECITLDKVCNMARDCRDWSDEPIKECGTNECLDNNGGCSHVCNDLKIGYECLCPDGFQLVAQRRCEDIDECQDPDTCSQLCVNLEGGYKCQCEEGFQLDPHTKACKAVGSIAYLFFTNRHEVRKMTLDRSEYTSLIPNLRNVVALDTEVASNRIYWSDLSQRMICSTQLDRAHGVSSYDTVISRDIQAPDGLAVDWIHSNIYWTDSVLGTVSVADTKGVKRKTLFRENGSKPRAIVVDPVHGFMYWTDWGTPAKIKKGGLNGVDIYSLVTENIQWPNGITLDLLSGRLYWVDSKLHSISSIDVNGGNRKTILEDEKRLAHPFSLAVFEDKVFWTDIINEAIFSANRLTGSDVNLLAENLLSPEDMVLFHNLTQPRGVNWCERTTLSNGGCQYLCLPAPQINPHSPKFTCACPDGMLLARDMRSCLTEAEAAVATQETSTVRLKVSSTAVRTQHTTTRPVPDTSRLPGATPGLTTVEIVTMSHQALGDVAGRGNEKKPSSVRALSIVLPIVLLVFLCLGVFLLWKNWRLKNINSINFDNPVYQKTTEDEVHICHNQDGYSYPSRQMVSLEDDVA

B1: bacterial virus clone expressing cyclic peptide SEQ ID NO: 11 (peptide)
peptide: DSGLCMPRLRGCDPR
modifications: not checked
Take B1: the percentage of shift of the fluorescence signal in zone Q2 was above 70%.

B2: bacterial virus clone expressing linear peptide SEQ ID NO: 21 (peptide)
peptide: TPSAHAMALQSLSVG
modifications: not checked
B2: the percentage of shift of the fluorescence signal in zone Q2 is above 55.8%.

The values are drawn from patent US20110230416A1.
